B1: KIAA0317 HECT domain (enzyme, human, UniProt O15033 436-823, looked up)
chain: SETFQDKVNFFQRELRQVHMKRPHSKVTLKVSRHALLESSLKATRNFSISDWSKNFEVVFQDEEALDWGGPRREWFELICKALFDTTNQLFTRFSDNNQALVHPNPNRPAHLRLKMYEFAGRLVGKCLYESSLGGAYKQLVRARFTRSFLAQIIGLRMHYKYFETDDPEFYKSKVCFILNNDMSEMELVFAEEKYNKSGQLDKVVELMTGGAQTPVTNANKIFYLNLLAQYRLASQVKEEVEHFLKGLNELVPENLLAIFDENELELLMCGTGDISVSDFKAHAVVVGGSWHFREKVMRWFWTVVSSLTQEELARLLQFTTGSSQLPPGGFAALCPSFQIIAAPTHSTLPTAHTCFNQLCLPTYDSYEEVHRMLQLAISEGCEGFGML
notes: domain: HECT domain; His- and Avi-tagged for selection and ELISA
B2: HERC2 HECT domain (enzyme, human, UniProt O95714 4412-4834, looked up)
chain: RQHGPVVELNRIQVKRSRSKGGLAGPDGTKSVFGQMCAKMSSFGPDSLLLPHRVWKVKFVGESVDDCGGGYSESIAEICEELQNGLTPLLIVTPNGRDESGANRDCYLLSPAARAPVHSSMFRFLGVLLGIAIRTGSPLSLNLAEPVWKQLAGMSLTIADLSEVDKDFIPGLMYIRDNEATSEEFEAMSLPFTVPSASGQDIQLSSKHTHITLDNRAEYVRLAINYRLHEFDEQVAAVREGMARVVPVPLLSLFTGYELETMVCGSPDIPLHLLKSVATYKGIEPSASLIQWFWEVMESFSNTERSLFLRFVWGRTRLPRTIADFRGRDFVIQVLDKYNPPDHFLPESYTCFFLLKLPRYSCKQVLEEKLKYAIHFCKSIDTDDYARIALTGEPAADDSSDDSDNEDVDSFASDSTQDYLTGH
notes: domain: HECT domain; His- and Avi-tagged for selection and ELISA; also called H2
B3: HERC1 HECT domain (enzyme, human, UniProt Q15751 4460-4861, looked up)
chain: IGKTMVQGKNYGPQITVKRISTRGRKCKPIFVQIARQVVKLNASDLRLPSRAWKVKLVGEGADDAGGVFDDTITEMCQELETGIVDLLIPSPNATAEVGYNRDRFLFNPSACLDEHLMQFKFLGILMGVAIRTKKPLDLHLAPLVWKQLCCVPLTLEDLEEVDLLYVQTLNSILHIEDSGITEESFHEMIPLDSFVGQSADGKMVPIIPGGNSIPLTFSNRKEYVERAIEYRLHEMDRQVAAVREGMSWIVPVPLLSLLTAKQLEQMVCGMPEISVEVLKKVVRYREVDEQHQLVQWFWHTLEEFSNEERVLFMRFVSGRSRLPANTADISQRFQIMKVDRPYDSLPTSQTCFFQLRLPPYSSQLVMAERLRYAINNCRSIDMDNYMLSRNVDNAEGSDTDY
notes: domain: HECT domain; His- and Avi-tagged for selection and ELISA; also called H1
B4: HACE1 HECT domain (enzyme, human, UniProt Q8IYU2 529-909, looked up)
chain: EWFYEHLHSGQPDSDMVHRPVNENDILLVHRDSIFRSSCEVVSKANCAKLKQGIAVRFHGEEGMGQGVVREWFDILSNEIVNPDYALFTQSADGTTFQPNSNSYVNPDHLNYFRFAGQILGLALNHRQLVNIYFTRSFYKHILGIPVNYQDVASIDPEYAKNLQWILDNDISDLGLELTFSVETDVFGAMEEVPLKPGGGSILVTQNNKAEYVQLVTELRMTRAIQPQINAFLQGFHMFIPPSLIQLFDEYELELLLSGMPEIDVSDWIKNTEYTSGYEREDPVIQWFWEVVEDITQEERVLLLQFVTGSSRVPHGGFANIMGGSGLQNFTIAAVPYTPNLLPTSSTCINMLKLPEYPSKEILKDRLLVALHCGSYGYTMA
notes: as for B1
B5: SMURF1 HECT domain (enzyme, human, UniProt Q9HCE7 374-757, looked up)
chain: YERDLVQKLKVLRHELSLQQPQAGHCRIEVSREEIFEESYRQIMKMRPKDLKKRLMVKFRGEEGLDYGGVAREWLYLLCHEMLNPYYGLFQYSTDNIYMLQINPDSSINPDHLSYFHFVGRIMGLAVFHGHYINGGFTVPFYKQLLGKPIQLSDLESVDPELHKSLVWILENDITPVLDHTFCVEHNAFGRILQHELKPNGRNVPVTEENKKEYVRLYVNWRFMRGIEAQFLALQKGFNELIPQHLLKPFDQKELELIIGGLDKIDLNDWKSNTRLKHCVADSNIVRWFWQAVETFDEERRARLLQFVTGSTRVPLQGFKALQGSTGAAGPRLFTIHLIDANTDNLPKAHTCFNRIDIPPYESYEKLYEKLLTAVEETCGFAVE
notes: domain: HECT domain; His- and Avi-tagged for selection and ELISA; also called S1
B6: HERC4 HECT domain (enzyme, human, UniProt Q5GLZ8 685-1057, looked up)
chain: AIDQAHRQNVSSLFLPVIESVNPCLILVVRRENIVGDAMEVLRKTKNIDYKKPLKVIFVGEDAVDAGGVRKEFFLLIMRELLDPKYGMFRYYEDSRLIWFSDKTFEDSDLFHLIGVICGLAIYNCTIVDLHFPLALYKKLLKKKPSLDDLKELMPDVGRSMQQLLDYPEDDIEETFCLNFTITVENFGATEVKELVLNGADTAVNKQNRQEFVDAYVDYIFNKSVASLFDAFHAGFHKVCGGKVLLLFQPNELQAMVIGNTNYDWKELEKNTEYKGEYWAEHPTIKIFWEVFHELPLEKKKQFLLFLTGSDRIPILGMKSLKLVIQSTGGGEEYLPVSHTCFNLLDLPKYTEKETLRSKLIQAIDHNEGFSLI
notes: domain: HECT domain; His- and Avi-tagged for selection and ELISA; also called H4
B7: UBE3C HECT domain (enzyme, human, UniProt Q15386 693-1083, looked up)
chain: VPFEERVKIFQRLIYADKQEVQGDGPFLDGINVTIRRNYIYEDAYDKLSPENEPDLKKRIRVHLLNAHGLDEAGIDGGGIFREFLNELLKSGFNPNQGFFKTTNEGLLYPNPAAQMLVGDSFARHYYFLGRMLGKALYENMLVELPFAGFFLSKLLGTSADVDIHHLASLDPEVYKNLLFLKSYEDDVEELGLNFTVVNNDLGEAQVVELKFGGKDIPVTSANRIAYIHLVADYRLNRQIRQHCLAFRQGLANVVSLEWLRMFDQQEIQVLISGAQVPISLEDLKSFTNYSGGYSADHPVIKVFWRVVEGFTDEEKRKLLKFVTSCSRPPLLGFKELYPAFCIHNGGSDLERLPTASTCMNLLKLPEFYDETLLRSKLLYAIECAAGFELS
notes: as for B1
B8: EDD1 HECT domain (enzyme, human, UniProt O95071 2462-2799, looked up)
chain: LDLGLVDSSEKVQQENRKRHGSSRSVVDMDLDDTDDGDDNAPLFYQPGKRGFYTPRPGKNTEARLNCFRNIGRILGLCLLQNELCPITLNRHVIKVLLGRKVNWHDFAFFDPVMYESLRQLILASQSSDADAVFSAMDLAFAIDLCKEEGGGQVELIPNGVNIPVTPQNVYEYVRKYAEHRMLVVAEQPLHAMRKGLLDVLPKNSLEDLTAEDFRLLVNGCGEVNVQMLISFTSFNDESGENAEKLLQFKRWFWSIVEKMSMTERQDLVYFWTSSPSLPASEEGFQPMPSITIRPPDDQHLPTANTCISRLYVPLYSSKQILKQKLLLAIKTKNFGFV
notes: as for B1
B9: HECW1 HECT domain (enzyme)
chain: not shown
notes: as for B1
B10: HECW2 HECT domain (enzyme)
chain: not shown
notes: as for B1
B11: HUWE1 HECT domain (enzyme, human, UniProt Q7Z6Z7 3993-4374, looked up)
chain: DFDVKRKYFRQELERLDEGLRKEDMAVHVRRDHVFEDSYRELHRKSPEEMKNRLYIVFEGEEGQDAGGLLREWYMIISREMFNPMYALFRTSPGDRVTYTINPSSHCNPNHLSYFKFVGRIVAKAVYDNRLLECYFTRSFYKHILGKSVRYTDMESEDYHFYQGLVYLLENDVSTLGYDLTFSTEVQEFGVCEVRDLKPNGANILVTEENKKEYVHLVCQMRMTGAIRKQLAAFLEGFYEIIPKRLISIFTEQELELLISGLPTIDIDDLKSNTEYHKYQSNSIQIQWFWRALRSFDQADRAKFLQFVTGTSKVPLQGFAALEGMNGIQKFQIHRDDRSTDRLPSAHTCFNQLDLPAYESFEKLRHMLLLAIQECSEGFGLA
notes: as for B1
B12: HECTD1 HECT domain (enzyme, human, UniProt Q9ULT8 2151-2610, looked up)
chain: IHADRKSVLEVEFLGEEGTGLGPTLEFYALVAAEFQRTDLGAWLCDDNFPDDESRHVDLGGGLKPPGYYVQRSCGLFTAPFPQDSDELERITKLFHFLGIFLAKCIQDNRLVDLPISKPFFKLMCMGDIKSNMSKLIYESRGDRDLHCTESQSEASTEEGHDSLSVGSFEEDSKSEFILDPPKPKPPAWFNGILTWEDFELVNPHRARFLKEIKDLAIKRRQILSNKGLSEDEKNTKLQELVLKNPSGSGPPLSIEDLGLNFQFCPSSRIYGFTAVDLKPSGEDEMITMDNAEEYVDLMFDFCMHTGIQKQMEAFRDGFNKVFPMEKLSSFSHEEVQMILCGNQSPSWAAEDIINYTEPKLGYTRDSPGFLRFVRVLCGMSSDERKAFLQFTTGCSTLPPGGLANLHPRLTVVRKVDATDASYPSVNTCVHYLKLPEYSSEEIMRERLLAATMEKGFHLN
notes: as for B1
B13: HERC6 HECT domain (enzyme, human, UniProt Q8IVU3 650-1022, looked up)
chain: KAYMLMHETILQKKDEFPPSPRFILRVRRSRLVKDALRQLSQAEATDFCKVLVVEFINEICPESGGVSSEFFHCMFEEMTKPEYGMFMYPEMGSCMWFPAKPKPEKKRYFLFGMLCGLSLFNLNVANLPFPLALYKKLLDQKPSLEDLKELSPRLGKSLQEVLDDAADDIGDALCIRFSIHWDQNDVDLIPNGISIPVDQTNKRDYVSKYIDYIFNVSVKAVYEEFQRGFYRVCEKEILRHFYPEELMTAIIGNTDYDWKQFEQNSKYEQGYQKSHPTIQLFWKAFHKLTLDEKKKFLFFLTGRDRLHARGIQKMEIVFRCPETFSERDHPTSITCHNILSLPKYSTMERMEEALQVAINNNRGFVSPMLTQS
notes: domain: HECT domain; His- and Avi-tagged for selection and ELISA; also called H6

target: T1, Wild Type Ub (human, UniProt P0CG48 1-76); assay: ELISA on immobilized HECT domain
T1 construct: native (tag-free) WT ubiquitin was the analyte in BLI; also called wt Ub; WT ubiquitin
Description: Proteins in study were immobilized on 384-well MaxiSorp plates (Thermo Scientific 12665347) by adding 30 μL of 1 μM proteins for overnight incubation at 4° C. Phage and protein ELISA against immobilized proteins was performed as described (Ernst et al., 2013). Binding of phage was detected using anti-M13-HRP antibody (GE Healthcare 27942101) and binding of FLAG-tagged UbVs was detected using anti-FLAG-HRP antibody (Sigma-Aldrich A8592). […] EC₅₀ values were calculated using the GraphPad Prism software with the built-in equation formula (non-linear regression curve).

Binding result, no binding:
B1
B2
B3
B4
B5
B6
B7
B8
B9
B10
B11
B12
B13
